Assay results as given in patent publication US20170267766A1 (PIERRE FABRE MEDICAMENT, published 2017).

Tests used:
[1] = biological target: T1, human IGF-1R (native, on cells) (human, UniProt P08069 31-1367); test: cell-based or functional assay
[2] = biological target: T2, rhIR protein (R&D Systems, cat No 1544-IR/CF) (human, UniProt P06213-2 28-944); test: ELISA, coated rhIR 1 ug/ml
T2 construct: extracellular domain; bought; also called rh Insulin R; recombinant human Insulin Receptor
Method: (§1) In addition three ELISA were performed (either before or after cloning) to study the binding of antibodies on the recombinant human (hIGF-1R) and murine (mIGF-1R) proteins, and on the recombinant human Insulin Receptor (hIR) protein. […] The plates were then blocked with PBS containing 0.5% gelatin (#22151, Serva Electrophoresis GmbH, Heidelberg, Germany) for 2 h at 37° C. Once the saturation buffer discarded by flicking plates, 100 μl of each supernatant dilution were added to the wells (either undiluted hybridoma supernatant either supernatant serial dilutions) and incubated for 1 h at 37° C. […] Then, ELISA plates were washed 3-times and the TMB (#UP664782, Uptima, Interchim, France) substrate is added. After a 10 min incubation time at room temperature, the reaction was stopped using 1 M sulfuric acid and the optical density at 450 nm is measured.

[3] = biological target: T1, human IGF-1R (native, on cells); test: cell-based or functional assay; remark: listed apart in the source
[4] = biological target: T3, monkey IGF-1R (on COS-7 cells) (African green monkey); test: cell-based or functional assay
[5] = biological target: T1, human IGF-1R (native, on cells); test: FACS, MCF7, 4°C, Ab 5 ug/ml
Method: Additionally an internalization assay was performed in order to select only internalizing antibodies. For this assay, the MCF7 tumor cell line was cultured in RMPI 1640 without phenol red with 1% L-glutamine and 10% of […] for 3 days before experiment. Cells were then detached using trypsin and 100 μl of a cell suspension at 4·10⁵ cell/ml are plated in 96-multiwell plates in RPMI1640 without phenol red with 1% L-glutamine and 5% FBS. After a 2 min centrifugation at 2000 rpm, cells were resupended in 50 μl of hybridoma supernatant or control antibody solutions (positive and isotype controls at 1 μg/ml). After a 20 min incubation time at 4° C., cells were centrifuged 2 min at 2000 rpm and resuspended in either cold (4° C.) or warm (37° C.) complete culture medium. Cells were then incubated for 2 hours either at 37° C. or at 4° C. Then cells were washed three times with FACS buffer. An Alexa 488-labeled goat anti-mouse IgG antibody was incubated for 20 minutes and cells were washed three times before FACS analysis on propidium iodide negative cell population.

[6] = biological target: T4, rmIGF-1R protein (R&D Systems, cat No 6630-GR/Fc) (murine, UniProt Q60751 31-936); test: ELISA, coated rmIGF-1R (Table 8)
T4 construct: extracellular domain; bought; also called murine extracellular domain (ECD) of IGF-1R; not shown: Fc only implied by the catalogue number; not described
Method: as §1

[7] = biological target: T1, human IGF-1R (native, on cells); test: cell-based or functional assay; remark: listed apart in the source
[8] = biological target: T1, human IGF-1R (native, on cells); test: FACS, Tf hIGF1R+ cells, Ab 5 ug/ml
[9] = biological target: T4, rmIGF-1R protein (R&D Systems, cat No …); test: ELISA, coated rm IGF-1R, SNT 5 ug/ml
Method: as §1

[10] = biological target: T5, human insulin receptor (on cells) (human, UniProt P06213 28-1382); test: FACS on hIR+ transfected cells, 4°C
T5 construct: whole, on cells; on stably transfected cells or on IM9 cells; also called hIR; IR
Method: (§2) In order to verify the absence of binding of both murine and chimeric antibodies on hIR, a stable cell line expressing the human IR was used. The recognition of human cell surface hIR by both murine and chimeric Ab was performed by FACS analyses. Increasing concentrations of either the murine or the chimeric mAbs were incubated on the hIR′ transfected cell line for 20 minutes at 4° C. in FACS buffer (PBS, 0.1% BSA, 0.01% NaN₃). Cells were then washed 3 times and incubated with the appropriate secondary antibody coupled with Alexa 488 before being incubated for 20 additional minutes at 4° C. in the dark and then washed 3 times in FACS buffer. The binding of anti-IGF-1R antibodies was immediately performed on viable cells which were identified using propidium iodide (that stains dead cells). The binding EC₅₀ expressed in molarity (M) was calculated using a nonlinear regression analysis (GraphPad Prims 4.0). […] The c9G4 was introduced as an irrelevant antibody (isotype control).

[11] = biological target: T1, human IGF-1R (native, on cells); test: FACS on MCF-7 cells, 4°C; inset table, axis log [M]
Method: The binding properties of a series of anti-IGF-1R antibodies were evaluated by FACS analyses on the human MCF-7 breast adenocarcinoma cell line (ATCC#HTB-22) using increasing antibody concentrations. For that purpose, cells (1×10⁶ cells/ml) were incubated with anti-IGF-1R antibodies for 20 min. at 4° C. in FACS buffer (PBS, 0.1% BSA, 0.01% NaN₃). They were then washed 3 times and incubated with the appropriate secondary antibody coupled with Alexa 488 for 20 additional minutes at 4° C. in the dark before being washed 3 times in FACS buffer. The binding of anti-IGF-1R antibodies was immediately performed on viable cells which were identified using propidium iodide (that stains dead cells). The maximum of signal intensity obtained with each antibody was designed as Bₘₐₓ and expressed in mean of fluorescence intensity (MFI). The EC₅₀ of binding expressed in molarity (M) was calculated using a nonlinear regression analysis (GraphPad Prims 4.0).

[12] = biological target: T3, monkey IGF-1R (on COS-7 cells); test: FACS on COS-7 cells, 4°C; inset table, axis log [M]
Method: In order to evaluate the binding of anti-IGF-1R antibodies on monkey IGF-1R, the binding of both murine and chimeric anti-hIGF-1R antibodies was evaluated by FACS analyses on COS-7 cell line using increasing antibody concentrations. Cells (1×10⁶ cells/ml) were incubated with anti-IGF-1R antibodies for 20 minutes at 4° C. in FACS buffer (PBS, 0.1% BSA, 0.01% NaN₃). Then, cells were washed 3 times and incubated with the appropriate secondary antibody coupled with Alexa 488 before being incubated for 20 additional minutes at 4° C. in the dark and finally washed 3 times in FACS buffer. The binding of anti-IGF-1R antibodies was immediately evaluated on viable cells identified using propidium iodide (that stains dead cells). The binding EC₅₀ expressed in molarity (M) was calculated using a nonlinear regression analysis (GraphPad Prims 4.0).

[13] = biological target: T3, monkey IGF-1R (on COS-7 cells); test: FACS, Cos-7 (monkey IGF1R+), Ab 5 ug/ml
[14] = biological target: T5, human insulin receptor (on cells); test: FACS on IM-9 cells (express hIR), 4°C
Method: as §2
For this FACS analysis, the protocol was the same as the one described previously and murine anti-IGF-1R antibodies were used in order to prevent the cross reactivity of the secondary anti-human Ab (IM9 cells express human Ig on their cell surface).

T4 sequence (Q60751 31-936): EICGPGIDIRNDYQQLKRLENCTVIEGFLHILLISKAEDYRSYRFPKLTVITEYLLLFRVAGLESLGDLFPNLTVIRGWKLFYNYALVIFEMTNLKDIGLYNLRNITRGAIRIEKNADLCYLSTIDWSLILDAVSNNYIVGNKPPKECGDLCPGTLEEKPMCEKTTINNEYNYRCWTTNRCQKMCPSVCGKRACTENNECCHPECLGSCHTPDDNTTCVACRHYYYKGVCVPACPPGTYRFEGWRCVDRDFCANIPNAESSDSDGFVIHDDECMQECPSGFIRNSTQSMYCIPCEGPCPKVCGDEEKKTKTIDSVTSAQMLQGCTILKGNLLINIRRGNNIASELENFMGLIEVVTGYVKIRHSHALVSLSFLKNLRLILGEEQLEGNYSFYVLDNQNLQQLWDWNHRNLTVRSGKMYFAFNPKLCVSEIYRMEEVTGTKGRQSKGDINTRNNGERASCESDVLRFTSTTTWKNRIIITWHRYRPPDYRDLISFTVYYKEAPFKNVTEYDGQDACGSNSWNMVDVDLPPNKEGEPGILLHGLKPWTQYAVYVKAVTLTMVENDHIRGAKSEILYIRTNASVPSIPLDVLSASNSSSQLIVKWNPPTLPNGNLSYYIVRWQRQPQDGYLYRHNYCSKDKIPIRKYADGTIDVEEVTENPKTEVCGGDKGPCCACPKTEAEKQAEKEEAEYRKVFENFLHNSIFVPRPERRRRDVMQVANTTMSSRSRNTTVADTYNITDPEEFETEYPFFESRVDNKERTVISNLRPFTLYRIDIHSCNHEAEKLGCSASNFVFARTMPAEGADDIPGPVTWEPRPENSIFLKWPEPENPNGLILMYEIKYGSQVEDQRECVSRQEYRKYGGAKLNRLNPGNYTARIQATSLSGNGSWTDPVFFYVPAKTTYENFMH

| Binder | hIGF-1R phosphorylation in response to IGF-1 (western blot, MCF-7) [1] [%] | binding result [2] | % remaining rh IGF1R [3] [%] | MFI 37°C (internalisation assay, MCF7) [3] [MFI] | Δ (MFI 4°C - MFI 37°C) [3] [MFI] | % internalisation [4] [%] | ΔMFI [4] [MFI] | MFI 4°C [5] [MFI] | binding result [6] | HalfLife (decay of cell-surface bound antibody on MCF-7 at 37°C) [7] | MFI [8] [MFI] | D.O 450 nm [9] [D.O 450 nm] | binding result [10] | EC50 [11] [nM] | EC50 [12] [nM] | MFI [13] [MFI] | binding result [14] |
| --- | --- | --- | --- | --- | --- | --- | --- | --- | --- | --- | --- | --- | --- | --- | --- | --- | --- |
| m208F2 (antibody, V domains shown, murine mAb, hybridoma CNCM I-4757, group G2; also called murine 208F2) VH: QVQLQQSGPELVKPGASVKMSCKASGYTFTSYYIYWVKQRPGQGLEWLGWIWPGDGSTKYNEKFKDKTTLTADKSSNTAYMFLSSLTSEDSAVYFCASPMITPNYAMDYWGQGASVTVSS VL: DIQMTQTTSSLSASLGDRVTISCRASQDISKYLNWYQQQPDGTIKLLIYYTSRLHSGVPSRFSGRGSGTDYSLTISNVEQEDIATYFCQQGSTLPYTFGGGTKLEIK | > 80 | no binding | 27 | 94 | 261 | 74 | 53 | 355 | no binding | 11.1 min (unit from p-0380; none on the sheet) | 2200 | 0.099 | no binding (tested: log [M] about -6.5 (about 3e-7 M)) | 0.526 | 0.758 |  |  |
| m213B10 (antibody, V domains shown, murine mAb, hybridoma CNCM I-4774, group G2) VH: QVQLQQSGSELVKPGASVKMSCKASGYTFTSYYIHWVKQRPGQGLEWIGWIWPGDGSTKYNERFKGKTTLTADKSSSTAYMFLSSLTSEDSAVYFCASPMITPNYAMDYWGQGASVTVSS VL: DIQMTQTTSSLSASLGDRVTISCRASQDISKYLNWYQQQPDGTIKLLIYYTSRLHSGVPSRFSGRGSGTDYSLTITNLEQEDIATYFCQQGSALPYTFGGGTKLEIK | > 80 | no binding | 30 | 115 | 271 | 74 | 84 | 386 | no binding | 12.8 min (unit from p-0380; none on the sheet) | 2060 | 0.127 |  |  |  | 122 | no binding (tested: log [M] about -6.5 (about 3e-7 M)) |
| m214F8 (antibody, V domains shown, murine mAb, hybridoma CNCM I-4775, group G2) VH: QVQLQQSGSELVKPGASVKLSCKASGYTFTSYYIHWVKQRPGQGLEWIGWIWPGDGSTKYNERFKGKTTLTADKSSSTAYMFLSSLTSEDSAVYFCASPMITPNYAMDYWGQGASVTVSS VL: DIQMTQTTSSLSASLGDRVTFSCRASQDISKYLNWYQQQPDGTIKLLIYYTSRLHSGVPSRFSGRGSGTDYSLTITNLEQEDIATYFCQQGSALPYTFGGGTKLEIK | > 80 | no binding | 29 | 111 | 275 | 71 | 76 | 386 | no binding | 16.8 min (unit from p-0380; none on the sheet) | 2140 | 0.102 |  |  |  | 132 | no binding (tested: log [M] about -6.5 (about 3e-7 M)) |
